The target in assay [1] is T1, mouse MAdCAM expressed on cells (mouse, UniProt Q61826 22-405).
T1 construct: whole, on cells
T1 sequence (looked up): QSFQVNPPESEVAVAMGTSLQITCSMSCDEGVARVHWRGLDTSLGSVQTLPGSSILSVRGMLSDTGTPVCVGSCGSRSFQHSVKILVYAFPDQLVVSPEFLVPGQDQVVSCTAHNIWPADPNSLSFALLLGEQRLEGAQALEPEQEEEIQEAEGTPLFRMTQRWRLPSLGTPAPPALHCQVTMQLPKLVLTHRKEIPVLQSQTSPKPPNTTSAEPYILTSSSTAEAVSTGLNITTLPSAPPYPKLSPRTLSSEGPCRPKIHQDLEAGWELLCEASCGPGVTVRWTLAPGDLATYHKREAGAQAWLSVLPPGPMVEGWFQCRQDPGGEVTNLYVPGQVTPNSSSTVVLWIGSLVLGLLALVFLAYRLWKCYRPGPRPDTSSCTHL
The assay can be described thus: cell binding.

Assay [2] has as its target T2, human MAdCAM expressed on cells (human, UniProt Q13477 19-382).
T2 construct: whole, on cells; also called MADCAM1
T2 sequence (looked up): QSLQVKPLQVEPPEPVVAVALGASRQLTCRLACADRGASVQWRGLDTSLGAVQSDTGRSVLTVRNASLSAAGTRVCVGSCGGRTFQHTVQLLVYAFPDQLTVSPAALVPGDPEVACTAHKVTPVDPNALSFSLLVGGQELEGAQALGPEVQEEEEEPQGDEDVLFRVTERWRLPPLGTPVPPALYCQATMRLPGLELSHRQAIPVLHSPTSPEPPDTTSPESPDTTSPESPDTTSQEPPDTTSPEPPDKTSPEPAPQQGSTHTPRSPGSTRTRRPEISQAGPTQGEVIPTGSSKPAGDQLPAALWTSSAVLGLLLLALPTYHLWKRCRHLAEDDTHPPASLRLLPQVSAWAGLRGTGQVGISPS
The assay can be described thus: cell binding.

B1: MAdCAM Antibody Table 2 Clone 44 (antibody, human IgG1, V domains shown)
VH: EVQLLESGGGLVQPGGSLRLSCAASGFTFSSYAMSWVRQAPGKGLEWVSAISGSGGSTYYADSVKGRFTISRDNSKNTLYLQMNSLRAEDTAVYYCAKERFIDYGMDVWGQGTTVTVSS
VL: DIQMTQSPSSLSASVGDRVTITCQASQDISNYLNWYQQKPGKAPKLLIYAASSLQSGVPSRFSGSGSGTDFTLTISSLQPEDFATYYCQQTYSGWTFGPGTKVDIK
As to B1, the binding result is “no binding” in assay [1] and “binds” in assay [2].

B2: MAdCAM Antibody Table 2 Clone 45 (antibody, human IgG1, V domains shown)
VH: EVQLVESGGGLVKPGGSLRLSCAASGFTFGDYAMSWVRQAPGKGLEWVSYISGDIGYTNYAAPVKGRFTISRDDSKNTLYLQMNSLKTEDTAVYYCARDVAATGNWYFDLWGRGTLVTVSS
VL: not shown
For B2, the binding result is given as “no binding” in assay [1] and “binds” in assay [2].

B3: MAdCAM Antibody Table 2 Clone 36 (antibody, human IgG1, V domains shown)
VH: EVQLLESGGGLVQPGGSLRLSCAASGFTFDDYALHWVRQAPGKGLEWVSAISGDGRSTTYADSVKGRFTISRDNSKNTLYLQMNSLRAEDTAVYYCARDGTVNGATGWFDPWGQGTLVTVSS
VL: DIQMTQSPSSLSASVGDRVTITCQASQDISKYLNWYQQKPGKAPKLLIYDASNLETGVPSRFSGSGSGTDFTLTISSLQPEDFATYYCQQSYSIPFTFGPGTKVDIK
For B3, the binding result in assay [1] and in assay [2] was “binds” throughout.

B4: MAdCAM Antibody Table 2 Clone 26 (antibody, V domains shown)
VH: EVQLLESGGGLVQPGGSLRLSCAASGFTFSSYAMSWVRQAPGKGLEWVSYISSSSTYTNYADSVKGRFTISRDNSKNTLYLQMNSLRAEDTAVYYCARANSSSWYDWYFDLWGQGTLVTVSS
VL: not shown
Take B4: the binding result in assay [1] is given as “no binding”; in assay [2] it was “binds”.

B5: MAdCAM Antibody Table 2 Clone 30 (antibody, human IgG1, V domains shown)
VH: EVQLLESGGGLVQPGGSLRLSCAASGFTFSSYAMHWVRQAPGKGLEWVSGISGSGGSAYYADSVKGRFTISRDNSKNTLYLQMNSLRAEDTAVYYCATSQAPVDYYYYGMDVWGQGTTVTVSS
VL: DIQMTQSPSSLSASVGDRVTITCRASQSISSWLAWYQQKPGKAPKLLIYAASNLQRGVPSRFSGSGSGTDFTLTISSLQPEDFATYYCQQSYSIPITFGQGTKVEIK
In the case of B5, the binding result in assay [1] and in assay [2] was “binds” each time.

B6: MAdCAM Antibody Table 2 Clone 43 (antibody, human IgG1, V domains shown)
VH: QVQLVQSGAEVKKPGASVKVSCKASGYTFTSYGISWVRQAPGQGLEWMGWMHPKSGDTGLTQKFQGRVTMTRDTSTSTVYMELSSLRSEDTAVYYCARDTPYYYYGMDVWGQGTTVTVSS
VL: DIQMTQSPSSLSASVGDRVTITCRASQSISSWLAWYQQKPGKAPKLLIYAASSLQSGVPSRFSGSGSGTDFTLTISSLQPEDFATYYCQQSYSVPITFGQGTKVEIK
Take B6: the binding result in assay [1] is “no binding”; in assay [2], “binds”.

B7: MAdCAM Antibody Table 2 Clone 41 (antibody, human IgG1, V domains shown)
VH: QVQLVQSGAEVKKPGASVKVSCKASGYTFTSYYMHWVRQAPGQGLEWMGIINPSGGSTSYAQKFQGRVTMTRDTSTSTVYMELSSLRSEDTAVYYCARDTGYSYGRYYYYGMDVWGQGTLVTVSS
VL: DIQMTQSPSSLSASVGDRVTITCRASQSIGRWLAWYQQKPGKAPKLLIYDASNLQSGVPSRFSGSGSGTDFTLTISSLQPEDFATYYCQQSYSIPITFGQGTKVEIK
As to B7, the binding result in assay [1] is recorded as “no binding”; in assay [2], “binds”.

B8: MAdCAM Antibody Table 2 Clone 42 (antibody, human IgG1, V domains shown)
VH: QVQLVQSGAEVKKPGASVKVSCKASGYTLTDYYMHWVRQAPGQGLEWMGIINPSGGSTSYAQKFQGRVTMTRDTSTSTVYMELSSLRSEDTAVYYCAREEYSSSSGYFDYWGQGTLVTVSS
VL: DIQMTQSPSSLSASVGDRVTITCRASQGISSWLAWYQQKPGKAPKLLIYAASSLQSGVPSRFSGSGSGTDFTLTISSLQPEDFATYYCQQSYSTPLTFGQGTKVEIK
In the case of B8, the results for the binding result in assay [1] and in assay [2] were “no binding” and “binds”, respectively.

B9: MAdCAM Antibody Table 2 Clone 34 (antibody, human IgG1, V domains shown)
VH: QVQLVQSGAEVKKPGASVKVSCKASGYTFTGYYIHWVRQAPGQGLEWMGWMNPNSGNTGYAQKFQGRVTMTRDTSTSTVYMELSSLRSEDTAVYYCARDPGFLGYCSGGSCYDGWFDPWGQGTLVTVSS
VL: DIQMTQSPSSLSASVGDRVTITCRASQSISSYLHWYQQKPGKAPKLLIYAASSLQSGVPSRFSGSGSGTDFTLTISSLQPEDFATYYCQQSYTAPYTFGQGTKLEIK
Regarding B9, the results for the binding result in assay [1] and in assay [2] were “no binding” and “binds”, respectively.

B10: MAdCAM Antibody Table 2 Clone 38 (antibody, human IgG1, V domains shown)
VH: QVQLVQSGAEVKKPGASVKVSCKASGYTFTDYFLHWVRQAPGQGLEWMGWMNPTSGNTGYAQKFQGRVTMTRDTSTSTVYMELSSLRSEDTAVYYCAREGEGSGFDYWGQGTLVTVSS
VL: DIQMTQSPSSLSASVGDRVTITCRASQGINSWLAWYQQKPGKAPKLLIYDASNLETGVPSRFSGSGSGTDFTLTISSLQPEDFATYYCQQSYSTPLTFGGGTKVEIK
Regarding B10, the binding result in assay [1] is listed as “no binding”; in assay [2] it was “binds”.

B11: MAdCAM Antibody Table 2 Clone 37 (antibody, human IgG1, V domains shown)
VH: EVQLLESGGGLVQPGGSLRLSCAASGFTFSDYGMPWVRQAPGKGLEWVSAISGSGGSTYYADSVKGRFTISRDNSKNTLYLQMNSLRAEDTAVYYCARDGGWQPAAILDYWGQGTLVTVSS
VL: DIQMTQSPSSLSASVGDRVTITCRASQGISNNLNWYQQKPGKAPKLLIYDASNLETGVPSRFSGSGSGTDFTLTISSLQPEDFATYYCQQSYSTPLTFGQGTKVEIK
Turning to B11, the binding result is reported as “no binding” in assay [1] and “binds” in assay [2].

B12: MAdCAM Antibody Table 2 Clone 39 (antibody, human IgG1, V domains shown)
VH: QVQLVQSGAEVKKPGASVKVSCKASGYTFTSYYMHWVRQAPGQGLEWMAWMNPNSGNTGYAQKFQGRVTMTRDTSTSTVYMELSSLRSEDTAVYYCARDYDFWSGSLGYWGQGTLVTVSS
VL: DIQMTQSPSSLSASVGDRVTITCRASQGISNYLAWYQQKPGKAPKLLIYAASSLQSGVPSRFSGSGSGTDFTLTISSLQPEDFATYYCQQSYSTPWTFGQGTKVEIK
As for B12, the binding result in assay [1] is recorded as “no binding”; in assay [2], “binds”.

B13: MAdCAM Antibody Table 2 Clone 40 (antibody, human IgG1, V domains shown)
VH: QVQLVQSGAEVKKPGASVKVSCKASGYTLTTWYMYWVRQAPGQGLEWMGWINPNRGATNYAQKFQGRVTMTRDTSTSTVYMELSSLRSEDTAVYYCAKGDLWGAMDVWGQGTLVTVSS
VL: DIQMTQSPSSLSASVGDRVTITCRASDNIGSWLAWYQQKPGKAPKLLIYAASSLQSGVPSRFSGSGSGTDFTLTISSLQPEDFATYYCQQGYSTPPTFGQGTKVEIK
In the case of B13, the binding result in assay [1] was “no binding”; in assay [2], “binds”.

B14: MAdCAM Antibody Table 2 Clone 59 (antibody, human IgG1, V domains shown)
VH: EVQLLESGGGLVQPGGSLRLSCAASGFSFSDYGMHWVRQAPGKGLEWVSAISGSGGSTYYADSVKGRFTISRDNSKNTLYLQMNSLRAEDTAVYYCARDGGWQPAAILDYWGQGTLVTVSS
VL: DIQMTQSPSSLSASVGDRVTITCRASQGISNNLNWYQQKPGKAPKLLIYDASNLETGVPSRFSGSGSGTDFTLTISSLQPEDFATYYCQQSYSTPLTFGGGTKVEIK
Take B14: the binding result is reported as “no binding” in assay [1] and “binds” in assay [2].

B15: MAdCAM Antibody Table 2 Clone 52 (antibody, human IgG1, V domains shown)
VH: EVQLLESGGGLVQPGGSLRLSCAASGFTFDDYGMSWVRQAPGKGLEWVSYISSSSSYIYYADSVKGRFTISRDNSKNTLYLQMNSLRAEDTAVYYCAREIAAAGFYGMDVWGQGTTVTVSS
VL: not shown
With B15, the values for the binding result in assay [1] and in assay [2] were “no binding” and “binds”, respectively.
